Test results published in article PMC5738261 (Journal of molecular biology, 2017).
Where two headings read alike, the source gives them in different places.

Experiments:
[1] = molecular target: T1, A3F-CD2 E251A K352A/K355A/K358A (human, UniProt Q8IUX4 190-373, E251A;K352A;K355A;K358A); assay: EMSA
[2] = molecular target: T1, A3F-CD2 E251A K352A/K355A/K358A; assay: EMSA; remark: listed apart in the source
dynamic light scattering [3] = molecular target: the molecule itself; assay: dynamic light scattering
dynamic light scattering [4] = molecular target: the molecule itself; assay: dynamic light scattering; remark: listed apart in the source
A3F-CD2 WT = A3F-CD2 WT (human, UniProt Q8IUX4 190-373); assay: X-ray crystallography

## AUUAUUAUUAUUUAUCCCUAUUUAUAUUUAUUGUUAUUGUUAUUGUUAUA (ssRNA) [50 nt RNA]
[1]
  binding result: no binding

## TTTTTTTTTT (ssDNA) [10 nt poly-dT (FAM)]
[2]
  binding result: no binding

B1: wild-type hA3F-CD2 (APOBEC3F C-terminal catalytic domain, residues 190-373) (domain or fragment, human, UniProt Q8IUX4 190-373, looked up)
chain: NPMEAMYPHIFYFHFKNLRKAYGRNESWLCFTMEVVKHHSPVSWKRGVFRNQVDPETHCHAERCFLSWFCDDILSPNTNYEVTWYTSWSPCPECAGEVAEFLARHSNVNLTIFTARLYYFWDTDYQEGLRSLSQEGASVEIMGYKDFKYCWENFVYNDDEPFKPWKGLKYNFLFLDSKLQEILE
Dynamic light scattering [3]
  stoichiometry N: 4
Dynamic light scattering [4]
  stoichiometry N: 2

## TTTTTTTTTT (ssDNA) [10 nt poly-dT (crystal, DLS)]
A3F-CD2 WT
  binding result: binds
